Assay results: patent publication US12269859B2, “Synthetic immune receptors and methods of use thereof” (Angeles Therapeutics, Inc., priority 2016, dated 2025)

B1: 010417-U02 (protein)
chain: MALPVTALLLPLALLLHAARPLEGKPIPNPLLGLDSTGSGEDLKNVFPPEVAVFEPSKAEIAHTQKATLVCLATGFYPDHVELSWWVNGKEVHSGVCTDPQPLKEQPALNDSRYCLSSRLRVSATFWQNPRNHFRCQVQFYGLSENDEWTQDRAKPVTQIVSAEAWGRADCGITSASYHQGVLSATILYEILLGKATLYAVLVSALVLMAMVKRKDSRGRAKRSGSGATNFSLLKQAGDVEENPGPTSMALPVTALLLPLALLLHAARPDQIVLTQSPAIMSASPGEKVTISCSASSSVSYMYWYQQKPGSSPKPWIYRTSNLASGVPARFSGSGSGTSYSLTISNMEAEDAAAYYCQQYHSYPTTFGGGTKLEVKGGGGSGGGGSGGGGSEVQLVESGGGLVQPKGSLKLSCAASGFSFNTYAMNWVRQAPGKGLEWIAHIRSKSNNFATYYADSVKDRFSISRDASENILFLQMNNLKTEDTAMYYCVRQGGDFPMDYWGQGTSVTVSSTREAAAKEIVLTQSPATLSLSPGERATLSCSASSSVSYMHWYQQKPGQAPRLLIYDTSKLASGIPARFSGSGSGTDFTLTISSLEPEDVAVYYCFQGSVYPFTFGQGTKLEIKRGGGGSGGGGSGGGGSQVQLQESGPGLVKPSQTLSLTCTVSGGSISTSGMGVGWIRQHPGKGLEWIGHIWWDDDKRYNPALKSRVTISVDTSKNQFSLKLSSVTAADTAVYYCARMELWSYYFDYWGQGTLVTVSSTREQKLISEEDGSGIQNPDPAVYQLRDSKSSDKSVCLFTDFDSQTNVSQSKDSDVYITDKCVLDMRSMDFKSNSAVAWSNKSDFACANAFNNSIIPEDTFFPSSDVPCDVKLVEKSFETDTNLNFQNLSVIGFRILLLKVAGFNLLMTLRLWSSRAKRSGSGVKQTLNFDLLKLAGDVESNPGPSRGHMTEYKPTVRLATRDDVPRAVRTLAAAFADYPATRHTVDPDRHIERVTELQELFLTRVGLDIGKVWVADDGAAVAVWTTPESVEAGAVFAEIGPRMAELSGSRLAAQQQMEGLLAPHRPKEPAWFLATVGVSPDHQGKGLGSAVVLPGVEAAERAGVPAFLETSAPRNLPFYERLGFTVTADVEVPEGPRTWCMTRKPGA
B2: 101817-E05 (protein)
chain: MALPVTALLLPLALLLHAARPQSVVTQPPSVSAAPGQKVTISCSGSSSNIGNNYVSWYQQLPGTAPKLLIYDNNKRPSGIPDRFSASKSGTSATLGITGLQTRDEADYYCGTWDSSLSAWVFGGGTKLTVLGLEIQNPDPAVYQLRDSKSSDKSVCLFTDFDSQTNVSQSKDSDVYITDKCVLDMRSMDFKSNSAVAWSNKSDFACANAFNNSIIPEDTFFPSSDVPCDVKLVEKSFETDTNLNFQNLSVIGFRILLLKVAGFNLLMTLRLWSSRAKRSGSGVKQTLNFDLLKLAGDVESNPGPTSMDWIWRILFLVGAATGAHSFEQVQLVQSGAEVKKPGSSVKVSCKASGDTFSSYYISWVRQAPGQGLEWMGRIIPILGIANYAQKYQGRVTLSADKSTSTSYMELNSLSSEDTAVYYCALDWSYSIDYWGQGTLVTVSSTREDLKNVFPPEVAVFEPSKAEIAHTQKATLVCLATGFYPDHVELSWWVNGKEVHSGVCTDPQPLKEQPALNDSRYCLSSRLRVSATFWQNPRNHFRCQVQFYGLSENDEWTQDRAKPVTQIVSAEAWGRADCGITSASYHQGVLSATILYEILLGKATLYAVLVSALVLMAMVKRKDSRGRAKRSGSGATNFSLLKQAGDVEENPGPSRGHMTEYKPTVRLATRDDVPRAVRTLAAAFADYPATRHTVDPDRHIERVTELQELFLTRVGLDIGKVWVADDGAAVAVWTTPESVEAGAVFAEIGPRMAELSGSRLAAQQQMEGLLAPHRPKEPAWFLATVGVSPDHQGKGLGSAVVLPGVEAAERAGVPAFLETSAPRNLPFYERLGFTVTADVEVPEGPRTWCMTRKPGA
B3: 112916-C01 (protein)
chain: MALPVTALLLPLALLLHAARPDVVMTQTPLTLSVTIGQPASISCKSSQSLLDSDGKTYLHWLLQRPGQSPKRLIFLVSKLDSGVPDRFTGSGSGTDFTLKISRVEAEDLGVYYCWQGTHFPQTFGGGTKLEIKLEGKPIPNPLLGLDSTGSGEDLKNVFPPEVAVFEPSKAEIAHTQKATLVCLATGFYPDHVELSWWVNGKEVHSGVCTDPQPLKEQPALNDSRYCLSSRLRVSATFWQNPRNHFRCQVQFYGLSENDEWTQDRAKPVTQIVSAEAWGRADCGITSASYHQGVLSATILYEILLGKATLYAVLVSALVLMAMVKRKDSRGRAKRSGSGATNFSLLKQAGDVEENPGPTSMDWIWRILFLVGAATGAHSFEVQLQESGPDLVKPSQSLSLTCTVTGYSITSGYSWHWIRQFPGNKLEWMGYIHYSGDTDYNPSLKSRFSITRDTSKNQFFLQLNSVTTEDTATYYCATPGGFVYWGQGTLVTVSSTREQKLISEEDGSGIQNPDPAVYQLRDSKSSDKSVCLFTDFDSQTNVSQSKDSDVYITDKCVLDMRSMDFKSNSAVAWSNKSDFACANAFNNSIIPEDTFFPSSDVPCDVKLVEKSFETDTNLNFQNLSVIGFRILLLKVAGFNLLMTLRLWSSRAKRSGSGVKQTLNFDLLKLAGDVESNPGPSRGHMTEYKPTVRLATRDDVPRAVRTLAAAFADYPATRHTVDPDRHIERVTELQELFLTRVGLDIGKVWVADDGAAVAVWTTPESVEAGAVFAEIGPRMAELSGSRLAAQQQMEGLLAPHRPKEPAWFLATVGVSPDHQGKGLGSAVVLPGVEAAERAGVPAFLETSAPRNLPFYERLGFTVTADVEVPEGPRTWCMTRKPGA
modifications: Polynucleotide encoding a Synthetic Immune Receptor (SIR)
B4: 010417-Y05 (protein)
chain: MALPVTALLLPLALLLHAARPLEGKPIPNPLLGLDSTGSGEDLKNVFPPEVAVFEPSKAEIAHTQKATLVCLATGFYPDHVELSWWVNGKEVHSGVCTDPQPLKEQPALNDSRYCLSSRLRVSATFWQNPRNHFRCQVQFYGLSENDEWTQDRAKPVTQIVSAEAWGRADCGITSASYHQGVLSATILYEILLGKATLYAVLVSALVLMAMVKRKDSRGRAKRSGSGATNFSLLKQAGDVEENPGPTSMALPVTALLLPLALLLHAARPDQIVLTQSPAIMSASPGEKVTISCSASSSVSYMYWYQQKPGSSPKPWIYRTSNLASGVPARFSGSGSGTSYSLTISNMEAEDAAAYYCQQYHSYPTTFGGGTKLEVKGGGGSGGGGSGGGGSEVQLVESGGGLVQPKGSLKLSCAASGFSFNTYAMNWVRQAPGKGLEWIAHIRSKSNNFATYYADSVKDRFSISRDASENILFLQMNNLKTEDTAMYYCVRQGGDFPMDYWGQGTSVTVSSTREAAAKEIVMTQSPATLSLSPGERATLSCRASQDISKYLNWYQQKPGQAPRLLIYHTSRLHSGIPARFSGSGSGTDYTLTISSLQPEDFAVYFCQQGNTLPYTFGQGTKLEIKGGGGSGGGGSGGGGSQVQLQESGPGLVKPSETLSLTCTVSGVSLPDYGVSWIRQPPGKGLEWIGVIWGSETTYYNSSLKSRVTISKDNSKNQVSLKLSSVTAADTAVYYCAKHYYYGGSYAMDYWGQGTLVTVSSTREQKLISEEDGSGIQNPDPAVYQLRDSKSSDKSVCLFTDFDSQTNVSQSKDSDVYITDKCVLDMRSMDFKSNSAVAWSNKSDFACANAFNNSIIPEDTFFPSSDVPCDVKLVEKSFETDTNLNFQNLSVIGFRILLLKVAGFNLLMTLRLWSSRAKRSGSGVKQTLNFDLLKLAGDVESNPGPSRGHMTEYKPTVRLATRDDVPRAVRTLAAAFADYPATRHTVDPDRHIERVTELQELFLTRVGLDIGKVWVADDGAAVAVWTTPESVEAGAVFAEIGPRMAELSGSRLAAQQQMEGLLAPHRPKEPAWFLATVGVSPDHQGKGLGSAVVLPGVEAAERAGVPAFLETSAPRNLPFYERLGFTVTADVEVPEGPRTWCMTRKPGA
B5: 092517-H02 (protein)
chain: MALPVTALLLPLALLLHAARPLEGKPIPNPLLGLDSTGSGEDLKNVFPPEVAVFEPSKAEIAHTQKATLVCLATGFYPDHVELSWWVNGKEVHSGVCTDPQPLKEQPALNDSRYCLSSRLRVSATFWQNPRNHFRCQVQFYGLSENDEWTQDRAKPVTQIVSAEAWGRADCGITSASYHQGVLSATILYEILLGKATLYAVLVSALVLMAMVKRKDSRGRAKRSGSGATNFSLLKQAGDVEENPGPTSMALPVTALLLPLALLLHAARPDVVMTQSPSSLSASVGDRVTITCKASEDIYIRLAWYQQKPGKAPKLLIYAATSLETGVPSRFSGSGSGTDFTLTISSLQPEDFATYYCQQYWTTPWTFGGGTKVEIKGGGGSGGGGSGGGGSQVQLQESGPGLVKPSQTLSLTCTVSGYSITIDYTWNWIRQPPGKGLEWIGYITYSGSTDYNPSLKSRVLISVDTSKNQVSLKLSSVTAADTAVYYCARLGRRYALDYWGQGTTVTVSSTREQKLISEEDGSGIQNPDPAVYQLRDSKSSDKSVCLFTDFDSQTNVSQSKDSDVYITDKCVLDMRSMDFKSNSAVAWSNKSDFACANAFNNSIIPEDTFFPSSDVPCDVKLVEKSFETDTNLNFQNLSVIGFRILLLKVAGFNLLMTLRLWSSRAKRSGSGVKQTLNFDLLKLAGDVESNPGPSRGHMTEYKPTVRLATRDDVPRAVRTLAAAFADYPATRHTVDPDRHIERVTELQELFLTRVGLDIGKVWVADDGAAVAVWTTPESVEAGAVFAEIGPRMAELSGSRLAAQQQMEGLLAPHRPKEPAWFLATVGVSPDHQGKGLGSAVVLPGVEAAERAGVPAFLETSAPRNLPFYERLGFTVTADVEVPEGPRTWCMTRKPGA

Tested on: target antigen-expressing cell line
Experiment: Jurkat NFAT-GFP assay, coculture with target cell lines expressing the respective target antigen (summary Table 10A)
Assay type: cell-based, human
Design: key: The signs +/−, +, 2+ etc. after the name of the cell lines indicate the relative degree of positivity on the Jurkat-NFAT-GFP assay as measured by the % GFP positive cells; +: relative degree of positivity on the Jurkat-NFAT-GFP assay as measured by the % GFP positive cells; 2+: relative degree of positivity on the Jurkat-NFAT-GFP assay as measured by the % GFP positive cells
Summary of the method: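 Read-out: % GFP+ cells by FACS. SIR-transduced, puromycin-selected Jurkat NFAT-GFP (IL-2 promoter reporter) cocultured ~4–18 h with target line, E:T ~1:2; parental cells as control; graded +/−, +, 2+ relative to parental.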

| Molecule | NFAT-GFP ASSAY Positive Cell lines (coculture with HEL cells) | NFAT-GFP ASSAY Positive Cell lines (coculture with NALM6 cells) | NFAT-GFP ASSAY Positive Cell lines (coculture with RAJI cells) | NFAT-GFP ASSAY Positive Cell lines (coculture with U266 cells) | NFAT-GFP ASSAY Positive Cell lines (coculture with L363 cells) |
| --- | --- | --- | --- | --- | --- |
| B1 | +/− | + | RAJI (+), NALM6 |  |  |
| B2 |  |  |  | U266(+/−) |  |
| B3 |  |  |  | U266 (+/−), L363 | (+) |
| B4 | (+), HEL (+) | (+), HEL (+) | RAJI (+), NALM6 |  |  |
| B5 | HEL(+) |  |  |  |  |
